Changes are numbered by the printed parent chain.
B1: rituximab (antibody, human IgG1, kappa)
chain 1: not shown
chain 2: QIVLSQSPAILSASPGEKVTMTCRASSSVSYIHWFQQKPGSSPKPWIYATSNLASGVPVRFSGSGSGTSYSLTISRVEAEDAATYYCQQWTSNPPTFGGGTKLEIKRTVAAPSVFIFPPSDEQLKSGTASVVCLLNNFYPREAKVQWKVDNALQSGNSQESVTEQDSKDSTYSLSSTLTLSKADYEKHKVYACEVTHQGLSSPVTKSFNRGEC
B2: AH02877 (antibody, human IgG1, V domains shown)
VH: QVQLVQSGAEVVKPGASVKVSCKASGYSFTDYNMYWVKQAPGQRLEWMGYIDPYNGDTTYNQKFKGRATLTVDTSASTAYIELSSLRSEDTAVYYCARSPYGHYAMDYWGQGTLVTVSS
VL: DIQMTQSPSSLSASVGDRVTITCKASQDVSTAVDWYQQKPGKSPKLLINWASTRHTGVPSRFSGSGSGTDYTLTISSLQPEDFATYYCRQHYSTPFTFGQGTKLEIKR
notes: Full-length human IgG1 kappa; constant domains from NNV003; also called NNV020 #3
B3: AH02875 (antibody, human IgG1, V domains shown)
VH: B2 VH with V2I, V11L, V12K, K38R, L70I, V72R
VL: B2 VL with L78M
notes: Full-length human IgG1 kappa; also called NNV020 #2
B4: AH02879 (antibody, human IgG1, V domains shown)
VH: B2 VH with V2I, M48I, V72R, I81M
VL: B2 VL with A13T, L78M
notes: Full-length human IgG1 kappa; constant domains from NNV003; also called NNV020 #4
B5: DuoHexaBody-CD37 (bispecific antibody, human IgG1, kappa)
heavy 1: not shown
light 1: YDMTQSPSTLSASVGDRVTITCQASQNIIDYLAWYQQKPGKAPKLLIHKASTTLASGVPSRFKGSGSGTEFTLTISSLQPDDFATYYCQQGYSNSNIDNTFGGGTKVEIKRTVAAPSVFIFPPSDEQLKSGTASVVCLLNNFYPREAKVQWKVDNALQSGNSQESVTEQDSKDSTYSLSSTLTLSKADYEKHKVYACEVTHQGLSSPVTKSFNRGEC
heavy 2: not shown
light 2: DVVMTQSPSTLSASVGDRVTITCQASQNIDSNLAWYQQKPGKAPKFLIYYASNLPFGVPSRFKGSGSGTEFTLTISSLQPDDFATYYCQSADVGSTYVAAFGGGTKVEIKRTVAAPSVFIFPPSDEQLKSGTASVVCLLNNFYPREAKVQWKVDNALQSGNSQESVTEQDSKDSTYSLSSTLTLSKADYEKHKVYACEVTHQGLSSPVTKSFNRGEC

Assays:
[1] = target: FcγRIIIa-V158 on Promega Jurkat effector cells (UniProt P08637 17-254, limits assumed); assay: cell-based or functional assay
human CD37 [2] = target: T1, human CD37 (human, UniProt P11049 1-281); assay: competitive radioligand binding on Ramos cells; ratio to Ki of NNV009 (assumed 2.3)
T1 construct: whole, on cells; also called CD37 antigen
T1 sequence (looked up): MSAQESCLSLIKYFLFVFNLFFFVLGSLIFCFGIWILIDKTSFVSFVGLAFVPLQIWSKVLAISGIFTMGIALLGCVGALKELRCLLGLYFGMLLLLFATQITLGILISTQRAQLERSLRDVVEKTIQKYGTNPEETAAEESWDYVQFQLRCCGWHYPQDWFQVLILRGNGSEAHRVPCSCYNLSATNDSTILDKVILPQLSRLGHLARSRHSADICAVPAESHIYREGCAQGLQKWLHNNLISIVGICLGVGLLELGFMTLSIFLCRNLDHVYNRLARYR
Method: (§1) The Eppendorf LoBind tubes 1.5 mL were used to prepare dilutions (working concentrations) of Abs. As much as 0.2 mL of the cell suspension (800 000 cells/tube), after it has been cooled down for 30 min on ice, was aliquoted to glass 12×75 mm counting tubes. Each tube was pre-labeled with a code specifically determining each sample. The tubes with cells were maintained on ice for whole time course of the experiment except for the time when counted on the gamma counter. The tubes were agitated on a planetary shaker at 350 RPM, 4° C. (on ice) for 15 min. […] The tubes were placed on the planetary shaker (GL 064), on ice, and shaken for 4 hours at 350 RPM. After 3.5 hours past from the beginning of incubation, the samples were assayed on Wizard2 gamma counter using protocol “Lu-177 General” (all detectors except for the detector #3 were used). Upon completion the counting, the cells were washed with ice-cold 0.5 mL 0.5% BSAPBS three times. All the tubes were assayed on the Wizard2 gamma counter again using the same sequence and parameters as before the washing.

human CD37 [3] = target: T1, human CD37; assay: competitive radioligand binding on Ramos cells against 177Lu-NNV009 (2.7 nM), gamma counting
Method: as §1

| Binder | average potency of the ADCC response (Example 13) [1] [nM] | efficacy (Emax) relative to NNV024, ADCC FcγRIIIa-158V reporter assay [1] [%] | Ki(NNV009)/Ki(NNV020 var.) (human CD37 [2]) [fold] | EC50 (human CD37 [3]) [nM] | Ki (human CD37 [3]) [nM] |
| --- | --- | --- | --- | --- | --- |
| B1 | 21.3 | 75 |  |  |  |
| B2 |  |  | 5.45 | 0.917 | 0.422 |
| B3 |  |  | 4.36 | 1.15 | 0.528 |
| B4 |  |  | 5.22 | 0.959 | 0.441 |
| B5 | 0.9 | 53 |  |  |  |

Reference: patent US20250333531A1 (NORDIC NANOVECTOR ASA, published 2025)
